Test results taken from PMC6515530, “Characterization and Dye Decolorization Potential of Two Laccases from the Marine-Derived Fungus Pestalotiopsis sp” (International Journal of Molecular Sciences, 2019).

Tests used:
Assay in all cases: purified protein
[1] = system: CCn1c(=NN=c2sc3cc(S(=O)(=O)O)ccc3n2CC)sc2cc(S(=O)(=O)O)ccc21; conditions: pH 4, 30 °C
[2] = system: COc1cc(-c2ccc(N)c(OC)c2)ccc1N; conditions: pH 5, 30 °C
[3] = system: T1, COc1cc(C=NN=Cc2cc(OC)c(O)c(OC)c2)cc(OC)c1O; type: biochemical, Pestalotiopsis sp. KF079; conditions: pH 5, 30 °C
T1 construct: secreted by Aspergillus niger D15#26, purified

| Substance | Km [1] [µM] | kcat [1] [s⁻¹] | kcat/Km [1] [M⁻¹ s⁻¹] | Km [2] [µM] | kcat [2] [s⁻¹] | kcat/Km [2] [M⁻¹ s⁻¹] | Km [3] [µM] | kcat [3] [s⁻¹] | kcat/Km [3] [M⁻¹ s⁻¹] |
| --- | --- | --- | --- | --- | --- | --- | --- | --- | --- |
| PsLac2 (Pestalotiopsis sp.) | 100 | 0.431 | 4330 | 144 | 0.748 | 5190 | 101 | 0.573 | 5670 |
| PsLac1 (Pestalotiopsis sp.) | 24 | 0.696 | 29200 | 647 | 0.057 | 89 | 4 | 0.365 | 82900 |
